In a protein production outcome set (Wang et al. 2014):
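Note: failed if final PepcDB status was selected cloned or expressed and not failed if soluble or beyond.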

Experiment: label from the status in PepcDB records
For “MNTVPLKPQRLLSLDVFRGMTIVLMIFVNGQAAIDPYPIFEHVDWNGCTLADLVFPFFLFIVGLTSVISLKNQMERKAKTSLYSAIIERSVVLFLLGLFLNVFPHPIEFDSIRIYGILQRIAVCYLISAFIYLNTSIKTQFFIFLVLLLGYWIIMTQVPVPGYGANQLTKDGSWVSYFDQLFFSASHLYEKTYDPEGFLSTFTSIATTLSGVLAGSLLISPCNQFKKFYLLAGIGLLFLLLGWLWNMSFPINKNLWTSSYVLWTSGLALLAFAFCYLLIDRFGVKKWSVFFKVFGMNALFAFVFHVLLLKLQYAFKITTPDGSKMVLISYLKDYFFGGFSNHNAALLYSICFLFLNFLVVLILYKRNVFIRI”, the protein production was “failed”.
For “MNTYLKNSPGFWIGRIHHKLKNRMNQRLKPYDLTAEQRLILLRLFEFGEMTQQQLCQKTFTEPSNITLTLRRMESHGYVRKKPHPKDKRASLIEATPKALSIQNELERIGLEITDSLLLEVDPSEKETLLRVLQAMYQKMLQEEAIEEFSF”, the protein production was “failed”.
In the case of “MNVEKLKRLQAQVRIGGKGTPRRKKKVMHQTAATDDKKLQSSLKKLSVSTIPGIEEVNIIKDDLTVIHFNNPKAQASLSANTFAVTGHGETRKVVEMLPDILPQLGQETVVQLRMYANAMNSQKGAPGSGDGPLPAEEDDDVPLLVGDFDEVAKVEATKQPVHEPKESAEIKAKDKQQQQPKKEQKQSAKVPETTNPSENPKEKQENKKGQAKNNKKGDPQTNKDKTNKSKDQAKGQPAPQANKETTQAAQALKQNPSKPAVQQKKDQVLAVDQKIEANGAIQKAQQPKPAETKSTDQKVEPKSAEKQVDKAKPIEQTKTKESKVEHPKPAQKQLDQNTQAKPTAERSEAKPVVPTPEPQKSAPPAVQTLAQIVALPAEKPANEAVAAPKAEEQKKDSSGPAKVEPAITPSAPQPVTTAEPPKSALKQDSPPKSAPKQGSPPKNVPKQESPPQSAPKQDSPPKGAPKQDSPPKGAPKQDSPPKGAPKQDSAPQQKTPPPVKQEVAPAKQDEPPAKQDAPPAKQDAPVPVPEVIKTLAPEVPNVSQAPAQPQGQAALASEKPADAPKAIEEPKAAPKKESPPPTKPVTATVPVAPATPAEAPSPLAPSTPPSTPTSVPPSAATVTPPSPATVTPPSPAVVTPPQKQSAAPQAGIKKQEAGTKTKQQQPANKPQQPQKQPPGGAGGSAGPGGNKGVQKQPNPNAKPAVAPKPAQATPKPAAASPKASPNQTNPQQQQGKAANKASPPKQTGPTGGQQKSAANASKATASPKSAASPKATSPKAGTPTNPASASGGPN”, the protein production is reported as “failed”.
With “MNVFAFSISGGGSERSYKETEKTSAMTTTHSTKLQPSQAILFKMREDAPPLNLTEEMPPPFPTKANYLIHPVRLEHHHHHH” the protein production was “failed”.
For “MNVIGKVTVLPQLPAEIARLSELAYNLYWSWTPRAQALYRDLSPELWERFQHNPVRLLLEADQDRLNAAAQDPAYLGRYAQVMADFDAYMGKKDTWAARHAPQMKPVAYFSMEYAFHESLPIYSGGLGVLAGDHCKSASDLGLPFTAVGMLFSQGYFRQLFDKDGWQNEAYDELDLTTLPIQPAQSAAGEDIRVSVRIAGREVAVKVWTLQVGRVRVLLLDSNVPDNSEDDRKLTARLYGGNQELRVQQYVLLGVAGIRALRALDVPASVYHMNEGHAALMALERMREYVAAGQDFRTAAELAASSTLFTTHTPVAAGNDAFTYELMDKYIGEWPGLLHAGRDELYALARHDQQWDGHTVPAFSMTVFALSMSRAANGVSELHGEVSRGMWNFLYPGAEENEVPIGHVTNGAHNLTFTSQRMRDLLSTVLPEDWTERLEDETMWQAVEQLTEEQLSNVQREMKREMITFVRGRVREQLLRNGASAADVAATDNLLDEGTLTIGFARRFATYKRATLLLRDKPRLAAIVNNPERPVQFVFAGKAHPADNPGKAFIQEIYRTSQEPEFRGKIVILENYDMNVARHLVQGVDIWLNNPRRPLEASGTSGMKASFNGSPNFSVLDGWWREGYDGTNGWPIGEEREYADLNVQDDADAFDLYQRLEHEIAPRYYGHAQGNASWAHTVRDAIETVSPRFSMQRQVLDYVQQYYLPLGQRGTQLADHGGARARDLAAWKAWVRQQWPHTSISAQANLPATARPGEQVTVSAQVNPAGIRPEELRVEAVLKRGDEVQRYPLAPGEGGQYSAEIPLDDSGLYSVGVRMLPLIDGLSNDLEAGLIKWA”, the protein production was “failed”.
For “MNVLDGAALEIGVPTVRTGIAGDGTLISVSGGSGADATPESDRILGALVLDDTHIDAVAVRRRRRGQGIGTALVEAALDRRDRLTAEFDADVRPFYEQLGFDVELLDDEDGRFRGIRK”, the protein production was “failed”.
For “MNVSRLCSLYPTLLIPLLFVAGCGLFASSTAPVSRSPESMAREAEEFQSSRRFEDAIAQWRKVKESYISPELITLAEIKIADAQFDSGNYIEAAASYEEFRKLHPNHEKSAYALYRQGLSYFNQIHGFDTDQTPVSNTVTIFESFLRLYPQSEHAEEVRNKLDAARQNQVQYEIYVGQFYYRTEKYTSAIKRLEDALKRYPRSPLHDETLYYLGKAYIKAGDKAGGREAFQRLFNEFRTSKYVDEARSFLDKNF”, the protein production was “failed”.
With “MNWGEGEWNSFFHFFTKEFINMSESFKELFEQSIAGAQFYPGAIITAKVIDIDDDFVTLNAGLKSEGIVAVEEFYDKNGELEVKVGDTVEVALDSVEDGHGETLLSREKAKRQEAWRKLSKCHENNETVTGLISGKVKGGFTVEIGSIRAFLPGSLVDVRPVRDPSYLEGKELEFKVIKMDLKRNNIVVSRRAVVEEESSADRQALLESLHDGQELHGIVKNLTDYGAFIDLGGIDGLLHITDISWKRVKHPSEVLSVGQDVKVKVLSFDSERNRVSLGMKQLGNDPWVDLVERYPIGKRLQGKVTNITDYGCFVEIEEGVEGLVHMSEMDWTNKNVHPSKVVSLGDVVDVMVLEIDEERRRISLGMKQCVGNPWQQFASTHNKGEKVKGKIRSITDFGIFIGLDGDIDGLVHLSDISWTVPGEEAVKQFKKGQELEAVILAIDPERERISLGLKQLEGDSFASFAETYTKGSIVKGTVTAVEPKTVTVALAEDVSGTIRVSELSDERVDDATTIVKVGDEVEAKITNIDRKNRTISLSVKAKDAQDEADAIKKYSRTEAASTTLGDLLKEKMASKEGELEHHHHHH” the protein production was “not failed”.
For “MNWIILTIAGCFEVLFTFCMGKVKETTGTEMYLWFTGFLIATLISMLLLVKATHNLPIGTAYAVWTGIGAVGTVLVGILVFKEPAGFWRLFFIVMLIGSIIGLKMVSHG”, the protein production was “failed”.
For “MNWKRLVQFYSVPPSQAALALGMIGLGQAWALYVPDIGTPIRPFLASFGALLLAPVLIKYATNPRLFMADIKHPLSGSLMAPMSMALLILTDYLASVAPLIAYPLWCLAVLLHFTMMVLFFGFQLMNFKMSNIVPSWFLYPVGLISSSLAGSQFGHNLFSETLAIMCIGIYFFMLPLVLYRLVFFGSLPRRARPTLAIMAAPVNLSLAAYLVNFPQPDPILTGALAGIAITMTLLIYLCYFRLLRLKFQPSIAAVTFPSVISAIAMHRLTSFFAQSHPQWHWLHDFGFLELSIATVLVVWVSAGYVKMYWPEIVRTPTKQA”, the protein production was “failed”.
For “MNYEEIVCDANNLYRAYKASVKTSKWKETTQKFMMNFLRYIFSIQDDLINRTLQNGPTQEFTLFERGRVRPITSIQIRDRIIRHVLCDEILLPEVKKHIIYDNCASIKGRGISHQRDRFEVHLRKYYRLYGNEGWILFGDFSKFYDNIIHEIAKRELLRLFDDDEFIDWLLTQIFDGFKIDVSYMTDEEYATCMTDTFNKLEYRNIPESKLTGEKWMEKSVNIGDQLSQVIGIYYPYRIDNYVKYVRSQKFYGRYMDDWYIMNPSKEELLDLLDHIHQIAEEYGIHINRKKTRIVKISSTYKFLQIKYSLTDSGKVIKRINPKRVTAMRRKLKRLAVKVKNEEISYENVENMFRSWMGGFYKLLSKEQRKNLIGLYEDLFEKSIEIVNKKMIIVDKTR”, the protein production was “failed”.
With “MNYGFVKVAAAVPRVKVADCKFNSERLEGLITIAEGKGVQILTFPEMCITGYTCGDLFAQQLLLEQAEMALIQILNSTRQLDIISILGMPVVVNSTVINAAVVIQKGKILGVVPKTYLPNYKEFYEQRWFTSALQVSENSVRLCGQIVPMGNNLLFETAETTFGIEICEDLWATVPPSSSLALQGAEIIFNLSADDEGIGKHNYLCSLISQQSARCISGYVFSSSGFGESTTDVVFAGNGLIYENGYLLARSERFCMEEQLIINEIDVECIRAERRVNTTFAANKANCPGKEAVRISTEFVNSKDLNLTRTFNPHPFVPQGNELNSRCEEIFSIQIAGLAQRLLHTGAKTAVIGISGGLDSTLALLVCVKTFDKLGLSRKDILGITMPGFGTTDRTYHNAIDLMNSLGVSIREISIREACIQHFKDIGHDLNIHDVTYENSQARERTQILMDIANQTWGMVIGTGDLSELALGWATYNGDHMSMYGVNAGIPKTLVKHLVQWVAENGMDETSKATLLDIVDTPISPELEHHHHHH” the protein production was “not failed”.
For “MNYKVLAYITAYNDYFALNRCIDGLINQTYKIDYLLIVDNSSRPIPIQKLGNNLSIEVQHHPENIGVAGGLTLGIQYAIHKKFDFIWLFDQDSTPYENALENLIYFYDKYINKSEIGILSCAVQDRETGQINCGFIYKNYRFYQQQIDSRKAVYECDAVITSGTLLNCHAAKEIGLPNESLFMDAVDFDYCMKLRKQDYKIFTVCNAKINHRFGNSKSIQLFNRTKFIYLYSSLRYFYVHRNHTYLETRLAKNCLFFIISTFYRIFKSFRKIFVILLFEDSQRLLKIYACSKGTVDGLLGKLGKTWT”, the protein production was “failed”.
With “MNYSRIAEAIEYIRAHYKEQPGLDEVAEKVHLSPFHFQRIFTEWAGISPKKFLQYISLEHHHHHH” the protein production was “failed”.
For “MNYVELLGYLAMLLVGLSFLMKDVIKLRFVNALGCICFSIYGILIGSFPVAALNGFVACTNIYFLINNNKD”, the protein production was “failed”.
With “MNYYGTSMWASDNNTASNSDSSLNLLGILLLASENNKLINNTVLTNLYGVNLMAESTGIGDKTGPSENILASNIISYNLGTGILFDESYGNLIYNNSFDNIWNVEDESLNTWNSSEIGNYWSDYEGEDADGDGVGDTPYLINSHTGSMDYLPVTRSSDFPELEHHHHHH” the protein production was “failed”.
In the case of “MPAASQDNDGGPSQSGGPMADPAPLIDTDPARIGEYTLLGRLGQGGQGVVYLGSAPDGARVAVKTLHRDALDLPGLREQLAEEVEMARRVARFCTAQVLAADLDADPPYVVSEYVEGPSLQAVVRERGPLRGASLERLAVGTLTALAAIHQAGIVHRDFKPANVLMAPGGPRVIDFGIARALEGTAILTSRIAGTPAYMAPEQITGGPLGPAVDMFAWGATLVYAANGRGPFGHGSLKAVVQRVINDEPDFGELSGTLREIAERCLNKDAAQRPTAAETLMLVLGIEGPPPTEEPSTDTAIPVTHQTLVAGAIAAADTGEQESAAELYRSYPPAPPPPHSNVAAQPSPTPPPHPQTASGPQPSLPSTGAQHSGYGYATGPHQSGYGYATGPQQGGYAPPPGPHQHAYPTPHSGNAAIPPHGGPSGPYAPAQPWMPSTGGYPQTSQPYSGQQYQQQAEGTSTAFVLGVVSIAVIAGVLLFILLFLLIGSLG”, the protein production is reported as “failed”.
For “MPAFRVPRVRRAQHAEVALGAVLGVMLIGLSVLISRFHLQPVEGVTVLAQLADASLGHNWAFYVVQFATMILLALSANTSFGGLPVLLKLPARDNYLPHVFALKADRQVHRHGVLTLAGVVAALLVFSGGDTNTLVPLFAIGVFIGFTIAQVGMVRHWRAE”, the protein production was “failed”.
With “MPAGSDWRTQPPSDYAQWNPAPRMPNQPKPLTTAHHQFAAIVQNSFDAIVSKDVEGNVQSWNPAAEQIFGWTADEMIGNSIRVLIPPDRQHEEDDILQRIRTGEMVPKFETERLHKSGRRIHVAVTVSPLRDPDGRIVGASKIAHDITETVEIRRRLVASEHQFRSLANSIPQLAWIAESDGTVFWYNDRWFDYTGTTLEQLRGSGWTALHHPDHLERVRSKLQHSWDTGEAWEDTFPLRGKDGEYRWFLSRAMPLRDDSGEVWRWFGTNTDITVQRQHEQQIQMLMGEINHRAKNMLAVVQAMVMRTADRSFAESLGARLQALSRNQDLLIKRNWSGTPIGELIESQLAAVNDLIGTRVLIEGERELLLSPVASETIGLAIHELTTNATKYGALSNADGTVRIACEIRHTVDGPKLDLIWHEQGGPPVGEPNRAGFGTVMIDRNPRSALGADVEISYPESGLRWCLNAPLDRLVATP” the protein production was “not failed”.
